Laboratory results as given in paper PMC4384115, “Molecular Recognition of PTS-1 Cargo Proteins by Pex5p: Implications for Protein Mistargeting in Primary Hyperoxaluria” (Biomolecules, 2015).
Numbering of substitutions follows the chain as printed. In names and notes the source's numbering stands.

B1: AGT-LRM: human AGT variant p.P11L/p.G170R/p.I340M, mistargeting PH1 variant (protein, UniProt P21549 1-392, looked up, variant P11L G170R I340M)
Alanine--glyoxylate …: MASHKLLVTPLKALLKPLSIPNQLLLGPGPSNLPPRIMAAGGLQMIGSMSKDMYQIMDEIKEGIQYVFQTRNPLTLVISGSGHCALEAALVNVLEPGDSFLVGANGIWGQRAVDIGERIGARVHPMTKDPGGHYTLQEVEEGLAQHKPVLLFLTHGESSTGVLQPLDGFRELCHRYKCLLLVDSVASLGGTPLYMDRQGIDILYSGSQKALNAPPGTSLISFSDKAKKKMYSRKTKPFSFYLDIKWLANFWGCDDQPRMYHHTIPVISLYSLRESLALIAEQGLENSWRQHREAAAYLHGRLQALGLQLFVKDPALRLPTVTTVAVPAGYDWRDIVSYVMDHFDIEIMGGLGPSTGKVLRIGLLGCNATRENVDRVTEALRAALQHCPKKKL
B2: AGT-LRM-SKL: AGT-LRM with PTS1 mutated to the consensus –SKL C-terminal tripeptide (protein, UniProt P21549 1-392, looked up, variant P11L G170R I340M K390S L392L)
Alanine--glyoxylate …: B1 Alanine--glyoxylate … with K390S

Key:
CHO cells [1] = test: Confocal immunofluorescence colocalization of AGT with mitochondria (Mitotracker) in transfected CHO cells; format: cell-based, Chinese hamster; details: transiently transfected CHO cells; for Pearson Rr, AGT + Mitotracker: fixed 72 h after transfection, mean ± S.E.
Description: (§1) Chinese hamster ovary (CHO) cells (ATTC, Rockville, MD USA) were grown in alpha-minimal essential medium (α-MEM, Lonza, Köln, Germany) supplemented with glutamine, penicillin/streptomycin and 5% fetal bovine serum. Cell transfections were performed using AGT cDNA variants (AGT-LRM or AGT-LRM-SKL) subcloned in pCIneo plasmids (Promega) with Transfast reagent (Promega, Madison, WI, USA), following manufacturer’s guidelines. After 24 h, cells were passed to plates containing 13 mm glass coverslips for immunofluorescence studies. Mitochondria in half the coverslips were labeled by incubation with Mitotracker (CMXRos, Invitrogen, Carlsbad, CA, USA) at the end of the culture. Cells were fixed with 2% paraformaldehyde 72 h after transfection and immunofluorescence was performed as previously described. Images were acquired with a laser scanning confocal microscope (Olympus Inverted IX81, Tokyo, Japan) using a 60× objective with immersion oil.
(§2) For quantitative immune-colocalization, the system was optimized to detect two fluorescent signals in one specimen: one in the green channel detector for protein of interest AGT-LRM or AGT-LRM-SKL and the other in the red channel, for either mitochondria labeled with mitotracker or peroxisomes labeled with peroxisomal membrane protein 70 (PMP70) antibody. When the two were seen to overlap (colocalization), it was assumed to be due to fluorescently labeled molecules binding to very close or indeed identical spatial positions. Colocalization events (or the lack thereof) were analyzed quantitatively with FluoView software (Olympus, Tokyo, Japan) and ImageJ software (NIH, Bethesda, MD, USA) with the JACoP plugin, based on a global statistic approach that conducts an intensity correlation coefficient-based examination. The Fisher transformation was applied to data obtained from ImageJ as well when calculating the mean values of colocalization coefficients and constructing the respective 95% confidence intervals. Descriptive statistical analysis of colocalization parameters (Pearson’s coefficient, Manders’ overlap coefficient and split Manders’ coefficients) was performed.

CHO cells [2] = test: Confocal immunofluorescence colocalization of AGT with peroxisomes (PMP70) in transfected CHO cells; format: cell-based, Chinese hamster; details: for amount of protein localized in peroxisomes / Pearson Rr, AGT + PMP70: transiently transfected CHO cells; for Pearson Rr, AGT + PMP70: fixed 72 h after transfection
Description: as §1, §2

Molecule | colocalization with mitotracker in the mitochondria (CHO cells [1]) | Pearson Rr, AGT + Mitotracker (CHO cells [1]) | Pearson Rr, AGT + Mitotracker (CHO cells [1]; SEM) | % Coloc (Manders' m), AGT + PMP70 (CHO cells [2]; CHO cells, mean ± S.E., given as fraction, split Manders' M1 in situation 2, Manders' overlap R in situation 4, SEM) | amount of protein localized in peroxisomes (CHO cells [2]) | Pearson Rr, AGT + PMP70 (CHO cells [2]; mean ± S.E.) | Pearson Rr, AGT + PMP70 (CHO cells [2]; mean ± S.E., SEM)
B1 | 92% | 0.90 | 0.90 ± 0.12 | 0.17 ± 0.15 | 17% | 0.39 | 0.39 ± 0.15
B2 | 40% | 0.47 |  |  | 84% | 0.79 | 
